Test results taken from patent US20140249052A1.

Target: Bio-GrBP5 (biotin-graphite binding peptide fusion, Bio-…)
Assay: integrated photoluminescence at 605 nm (514 nm laser) of SA-QD immobilised on bio-GrBP5 nanowires on graphite; the row 'SA-QD Bare' (38019.9, Std. Dev. 8427) is on graphite without peptide

Cd-Se Qdot 605-streptavidin conjugate (Q10101MP, Life Technologies) (from UniProt P22629 37-163)
Intensity (AU): 88200 AU
